Assay results as given in article PMC12313985 (2025).
Square brackets hold non-standard residues; d marks the D form. Ends that are not written are not given here. pS = N[C@@H](COP(=O)(O)O)C(=O)O

Molecular target: T1, 14-3-3 protein zeta (14-3-3ζ) (UniProt P63104 1-245)
T1 chain: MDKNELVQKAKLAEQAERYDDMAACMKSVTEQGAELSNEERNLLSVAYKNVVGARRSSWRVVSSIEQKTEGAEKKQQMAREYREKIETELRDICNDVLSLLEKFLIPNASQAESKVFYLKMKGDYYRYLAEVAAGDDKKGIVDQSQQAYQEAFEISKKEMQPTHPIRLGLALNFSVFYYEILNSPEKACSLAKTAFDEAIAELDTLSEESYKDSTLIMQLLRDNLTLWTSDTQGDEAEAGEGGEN
Assay: FP
In the case of SRTP[pS]LPTPPTREGGGSGGGSGGGVTSKCG[pS]LGNIHHK (also: fluorescein (FITC) label, position not given here) [Fluorescein (FITC)-labelled bi-phospho Tau peptide pS2 (Tau^210–222-GGGSGGGSGGG-Tau^318–331)], the Kd is reported as 0.945 µM.
SRTP[pS]LPTPPTRE (also: fluorescein (FITC) label, position not given here) [Fluorescein-labelled mono-phospho-Tau pS214 peptide] gave a Kd greater than 100 µM.
VTSKCG[pS]LGNIHHK (also: fluorescein (FITC) label, position not given here) [Fluorescein-labelled mono-phospho-Tau pS324 peptide] was tested, and the Kd was greater than 100 µM.
